Laboratory results as given in the DeepSol protein solubility set.

Assay: soluble on expression in E. coli; label from the status in PepcDB or PDB records

Sequence | soluble on expression in E. coli
MSKDYRSLANLSPFELKDELIKVASGKANRLMLNAGRGNPNFLATTPRRAFFRLGLFAAAESELSYSYMTVGVGGLAKLDGIEGRFERFIAEHRDQEGVKFLGKSLSYVRDQLGLDPAAFLHEMVDGILGCNYPVPPRMLTVSEQIVRQYIVREMAGGAVPPESVDLFAVEGGTAAMAYIFESLRISGLLKAGDKVAIGMPVFTPYIEIPELAQYDLKEVPIHADPDNGWQYSDAELDKLKDPDVKIFFCVNPSNPPSVKMDQRSLDRVRAIVAEQRPDLLILTDDVYGTFADEFQSLFSVCPRNTLLVYSFSKYFGATGWRLGVIAAHKDNVFDHALSQLPESAKKALDHRYRSLLPDVRSLKFIDRLVADSRVVALNHTAGLSTPQQVQMVLFSLFALMDEADAYKQALKQLIRRREATLYRELGMPPLENPNSVNYYTLIDLQNVTCRLYGEAFSQWAVQQSSTGDMLFRVADETGIVLLPGRGFGSDRPSGRASLANLNEYEYAAIGRALRRLADELYEQYKALGKEKLAAALEHHHHHH | soluble
MAHHHHHHMKPTKPLLYITGYGPFLEVTENPSATIAQSVAEQVRQSGEADVHHETLDVNLEAVSKYFNRLNESVTAHLEATHPENRVLLVNVGLHSREKEKVLRLEVRAFNELEGNPIDDELPLSTCKDSAFVKGCKLETTTALIEELNAIERNGSDHHEKPRWIISYDAGRYYCNYALYRGVKMQEALNSRVFAVFLHIVASTVVCMEEQVAQVRMLVSHLLKHMEAVE | soluble
MGSDKIHHHHHHMSQQRPDRIKQMLHYLWQHRHLSTQQAIELFGYAEATVRRDFHYIASRYPGMVRGHGCIDFDDSTEDKEYVFDVKRTLQSEAKREIAALARTFIKDGDCFFLDSGSTCLELAKCLVDAKVKVICNDIKIANELGGFPHVESYIIGGLIRPGYFSVGESLALEMINAFAVERAFISCDALSIETGITNATMFEVGVKTRIIQRSREVILMADHSKFDTVEPHAVATLSCITTILSDSALPSAIARRYQQAGCRLIMSDPSSGAR | not soluble
SGGGGGILEKLGDICFSLRYVPTAGKLTVVILEAKNLKKMDVGGLSDPYVKIHLMQNGKRLKKKKTTIKKNTLNPYYNESFSFEVPFEQIQKVQVVVTVLDYDKIGKNDAIGKVFVGYNSTGAELRHWSDMLANPRRPIAQWHTLQVEEEVDAMLAVKK | soluble
MSEITLGKYLFERLKQVNVNTVFGLPGDFNLSLLDKIYEVEGMRWAGNANELNAAYAADGYARIKGMSCIITTFGVGELSALNGIAGSYAEHVGVLHVVGVPSISAQAKQLLLHHTLGNGDFTVFHRMSANISETTAMITDIATAPAEIDRCIRTTYVTQRPVYLGLPANLVDLNVPAKLLQTPIDMSLKPNDAESEKEVIDTILVLDKDAKNPVILADACCSRHDVKAETKKLIDLTQFPAFVTPMGKGSIDEQHPRYGGVYVGTLSKPEVKEAVESADLILSVGALLSDFNTGSFSYSYKTKNIVEFHSDHMKIRNATFPGVQMKFVLQKLLTTIADAAKGYKPVAVPARTPANAAVPASTPLKQEWMWNQLGNFLQEGDVVIAETGTSAFGINQTTFPNNTYGISQVLWGSIGFTTGATLGAAFAAEEIDPKKRVILFIGDGSLQLTVQEISTMIRWGLKPYLFVLNNDGYTIQKLIHGPKAQYNEIQGWDHLSLLPTFGAKDYETHRVATTGEWDKLTQDKSFNDNSKIRMIEVMLPVFDAPQNLVEQAKLTAATNAKQ | soluble
MGSDKIHHHHHHMPFLLFKFPGKRVLGFSFEGRPHRHATGLSRFLDVHGAAYACELGRLSSELVGASEGALLKRLESLYDEILIDEVQDLSAHDWEIVDALLHSSIHIRMVGDIRQSVLATNPRSTKNKQYAYAETVKWFREREQLGRLAIRESVETWRCHPKIAAFSDTIFDASWAFPSTVSRNDAMTDHDGVFLLTKKHVRDYVERFAPQCLRSMAGSGKEFNLDFMNFKVAKGSTFERVLIMPTAGITDFVRKGSSLEPVPAASFYVAVTRAAQSVAMVIDNAGASTLPYWTP | not soluble
MAHHHHHHMPRRFVAEYVTKHLCGVRVLESFAETSTATGVIGTHNGSFHCDEAMACGLLRCSQNFGQSNILRSRDPNALERCNIVVDVGSVYDEATLRFDHHQPSFHDTMKTPKAAYQTRLSSAGLVYKHFGREIIQGYVESALASPYRVKLLDATKWGTDKKKLSEQELDILFDIVYKNFVEHIDGIDNGVNAYGPAETEGEEGAVPVSSSSPSCVKKYNVSTTLSARIGNLMPWWNEEGNGKVENENAAFLQAMELATSEFFDSVHYHVFAWMPARGIVRAAFLEAMNVHPSGRIVVFKDCFCPWKEHLLELEEEHGKVGHVLYVLFADKKGWRVQAVPKEASGFENRKSLPWRGLRDEELSQASGIEGGIFVHVSGFIGGNKTYEGALQMAVKALTVVN | not soluble
MSTEDALCFTGEEYARHVREYWRGVAESDGFDSEDIRSPVVLTGLFHYDCQSGRRYPDPLLVKRYALLGLHRFNILQGTSFELDALQKFNKTMNLTSSYYITLLANEPGAIPLQKTFQVRVDERKYDTLDLTVAIARLKKDQNEAAETTKEPFVPHFCCSAVSDGVFQGPLPDWPSDDALRHDRNRFYELEKSEWQATDWISLYLELLILATDRGMFGVAQTGLPQVQILKVVIETEEENEKPLDKRLNARRAHVYITFTGLPKSPRLVEIGEHVERKAIIRRVIDDSGYLTLLGKFWSGKDTEQRSKTRQSEEKVESSQKRSRLC | soluble
EALYVAGYLALYSKDEGELNITPEIVRSALPPTSKIPINIDHRKDCVVGEVIAIIEDIRGPFFLGIVRCPQLHAVLFEAAHSNFFGNRDSVLSPLERALYLVTNYLPSVSLSSKRLSPNEIPDGNFFTHVALCVVGRRVGTVVNYDCTPESSIEPFRVLSMESKARLLSLVKDYAGLNKVWKVSEDKLAKVLLSTAVNNMLLRDRWDVVAKRRREAGIMGH | soluble
DTDMGLTRRLPPLSPNKEKQPDVEINDRNIMRILVNKNDEIILLKKGATGSQDQIIPVKLSDLRRITKEFIANPTNRADLPEKEKRE | not soluble
MAHHHHHHMTNKSYPTSLVTTPKVRRKSSEHGTFHNSSPKKKNRDIRDFFTANKCNESVEKSWNNNINKRSYHDSPMNDSPNTTLKFLSKKYKTEIN | soluble
SNAMKLIAIDLDGTLLNSKHQVSLENENALRQAQRDGIEVVVSTGRAHFDVMSIFEPLGIKTWVISANGAVIHDPEGRLYHHETIDKKRAYDILSWLESENYYYEVFTGSAIYTPQNGRELLDVELDRFRSANPEADLSVLKQAAEVQYSQSGFAYINSFQELFEADEPIDFYNILGFSFFKEKLEAGWKRYEHAEDLTLVSSAEHNFELSSRKASKGQALKRLAKQLNIPLEETAAVGDSLNDKSMLEAAGKGVAMGNAREDIKSIADAVTLTNDEHGVAHMMKHLL | soluble
MLSRSAKPVAPNSPLMALLPYSFNRPINVLVMGLDQSETGEQAEKFDTRSDTLLLLRFDPLEGTTSLLSIPRDTQVAIPGYGTTKINAANVFGGPALAADVVSRTLNDVPIDRYLRIDTTAFKELVDLVGGVEVYVPKPMRYTDNTQKLYIDLPAGRQTLNGDQAEQFARFRYDELGDIGRVQRQQMLLRALREKLANPLILTKAPDLVKVLQKYVDTNLSFEELMALVSIGLQQDLANIRMVMLPGRPIMQDDVSYWRLDEGARDRLVSDFFNQISIQPIDRLAFEDLRVAIQDSSGKPEAAQALAESLAKLGIRRVYIIEDWPEPLEKTQIIAQRGDLIQAEGLQQQLNLGEVRASSDGDIGSDLTIRIGQDWQPTPSPKPLEHHHHHH | soluble
MPAKVLINGYGSIGKRVADAVSMQDDMEVIGVTKTKPDFEARLAVEKGYKLFVAIPDNERVKLFEDAGIPVEGTILDIIEDADIVVDGAPKKIGKQNLENIYKPHKVKAILQGGEKAKDVEDNFNALWSYNRCYGKDYVRVVSCNTTGLCRILYAINSIADIKKARIVLVRRAADPNDDKTGPVNAITPNPVTVPSHHGPDVVSVVPEFEGKILTSAVIVPTTLMHMHTLMVEVDGDVSRDDILEAIKKTPRIITVRAEDGFSSTAKIIEYGRDLGRLRYDINELVVWEESINVLENEIFLMQAVHQESIVIPENIDCIRAMLQMEEDNFKSIEKTNKAMGIQ | soluble
MSLSIFKRKTKQVNPFEQGWLTDLIDIHCHLLPAVDDGSKSIEETLSLIDLLEEIGVKQHILTPHIMEEYPSNDAIFLRARFEELLAAITPDKASRLRLAAEYMLDVAFLDRLAEPLLTLGDRYILVETSYMAPPIGLMGLLADLRFKGLSPVLAHPERYLYMEEKDYVAIKKQGVMFQLNLFSLFGAYNSSASEKAYALLEAGYYDLIGTDIHHLQPIARLLSEASLPPDLEGKIKSLVENNTRLFSEGHHHHHH | soluble
MSLRVLGIETSCDETAVAVLDDGKNVVVNFTVSQIEVHQKFGGVVPEVAARHHLKNLPILLKKAFEKVPPETVDVVAATYGPGLIGALLVGLSAAKGLAISLEKPFVGVNHVEAHVQAVFLANPDLKPPLVVLMVSGGHTQLMKVDEDYSMEVLGETLDDSAGEAFDKVARLLGLGYPGGPVIDRVAKKGDPEKYSFPRPMLDDDSYNFSFAGLKTSVLYFLQREKGYKVEDVAASFQKAVVDILVEKTFRLARNLGIRKIAFVGGVAANSMLREEVRKRAERWNYEVFFPPLELCTDNALMVAKAGYEKAKRGMFSPLSLNADPNLNVEGHHHHHH | soluble
MPTLQAAMFLEKDMQKNTLWFDSLSMQDVDKVGGKNASLGEMVSNLANAGVSVPNGFATTAYAFNQFLDFEGLDERIHQLLDELDVDDVDALRKTGATIRQWILQAPFPAELEQEIRTNYNQLIDGNSELSVAVRSSATAEDLPDASFAGQQETFLNVKGIDAVLEATKHVYASLFNDRAISYRVHQGFDHRGIALSAGIQRMVRSDKAASGVMFTLDTESGFDKVVFITAAWGLGEMVVQGAVNPDEFYVHKPLLEAGYPAIVKKTFGSKLSKMIYANSQVIGKQVEVVDTSAHERNQFSLTDAEIQELAKQALIIEKHYQRPMDIEWAKDGIDGKLYIVQARPETVCSQSEQNVIERYELSHKASVLLEGRAIGQRIGSGTVRLVDSLDQMSLVQQGDVLVTDMTDPDWEPVMKKAAAIVTNRGGRTCHAAIIARELGIPAIVGCGDATRRLSDGAQVTVSCAEGETGYVYAGQLDFAVRRSSVDELPMLPTKVMMNVGNPDRAFDFAQIPNEGVGLARLEFIINKMIGIHPKALLNFDTQSAELQTQILDRIRGYRDPIDFYVSKLTEGIATIAAAFWPKRVIVRMSDFKSNEYSNLLGGSEFEPHEENPMLGFRGASRYISPVFEDCFELETQAIKRVRHEMGLKNVEVMIPFVRTTGEAEAVIDLLAKFGLRRGEQGLKVIMMCELPSNAVLADEFLKFFDGFSIGSNDMTQLTLGLDRDSGDVAHLFDERNPAVKIMLKMAIDAATRAGKYVGICGQGPSDHDDLAQWLMEQGISSVSLNPDTVIDTWLKLGAVSKC | not soluble
MISASLQQRKTRTRRSMLFVPGANAAMVSNSFIYPADALMFDLEDSVALREKDTARRMVYHALQHPLYRDIETIVRVNALDSEWGVNDLEAVVRGGADVVRLPKTDTAQDVLDIEKEILRIEKACGREPGSTGLLAAIESPLGITRAVEIAHASERLIGIALGAEDYVRNLRTERSPEGTELLFARCSILQAARSAGIQAFDTVYSDANNEAGFLQEAAHIKQLGFDGKSLINPRQIDLLHNLYAPTQKEVDHARRVVEAAEAAAREGLGVVSLNGKMVDGPVIDRARLVLSRAELSGIREE | soluble
MGSDKIHHHHHHMAYRNGTYVAFHANGTNRPGGNSDIDYYNLLKAWVGKDDDHFTMNNSHDKASAVRDSSKKETLRASLLERLRNSKNMVLIIGDTTLLDDDWVPFEISSAVDTYEIPIIAVYTQYSTPIRNPAALRSRWPDALATRIDSQKAKVIHIPFKKAALNDAISQFSHNNMPKGPLSFYSDEAYESFGIDG | not soluble
